The RNAGym collection of RNA variant scans (doi:10.7554/elife.80360)

B1: HDV Ribozyme (parent)
chain: GGCCGGCAUGGUCCCAGCCUCCUCGCUGGCGCCGGCUGGGCAACAUUCCGAGGGGACCGUCCCCUCGGUAAUGGCGAAUGGGACCCA

Variants of: B1
Test: self-cleavage, relative activity (ratio to wild type); higher = more cleavage; co-transcriptional

Variant	self-cleavage
GGCCGUCAUGGUCCCAGCCUCCUCGCUGGCGCUGGCUGGGCAACAUUCCGAGGGGACCGUCCCCUCGGUAAUGGCGAAUGGGACCCA [G6U C33U]	0.217
GGCCGUCAUGGUCCCAGUCUCCUCGCUGGCGCCGGCUGGGCAACAUUCCGAGGGGACCGUCCCCUCGGUAAUGGCGAAUGGGACCCA [G6U C18U]	0.0369
GGCCGCCAUGGUCCCAGCCUCCUCGCUGGCGCCGGCGGGGCAACAUUCCGAGGGGACCGUCCCCUCGGUAAUGGCGAAUGGGACCCA [G6C U37G]	0.0923
GGCCGUCAUGGUCCCAGCCUCCUCGCUGGCGCCGGCUGGGCAACAUUCCGAGGGGAGCGUCCCCUCGGUAAUGGCGAAUGGGACCCA [G6U C57G]	0.491
GGCCGUCAUGGUCCCAGCCUCCUCGCUGGCGCCGGCUGGGCAACAUUCCGAGGGGAUCGUCCCCUCGGUAAUGGCGAAUGGGACCCA [G6U C57U]	0.573
GGCCGUCAUGGUCCCAGCCUCCUCGCUGGAGCCGGCUGGGCAACAUUCCGAGGGGACCGUCCCCUCGGUAAUGGCGAAUGGGACCCA [G6U C30A]	0.0791
GGCCGUCAUGGUCCCAGCCUCCUCGCUGGCGCCGGCUGGGCAACAUUCCGAGGGGCCCGUCCCCUCGGUAAUGGCGAAUGGGACCCA [G6U A56C]	0.665
GGCCGCCAUGGUCCCAGCCUCCUCGCCGGCGCCGGCUGGGCAACAUUCCGAGGGGACCGUCCCCUCGGUAAUGGCGAAUGGGACCCA [G6C U27C]	0.0923
GGCCGCCAUGGUCCCAGCCCCCUCGCUGGCGCCGGCUGGGCAACAUUCCGAGGGGACCGUCCCCUCGGUAAUGGCGAAUGGGACCCA [G6C U20C]	0.0923
GGCCGCCAUGGUCCCAGCCGCCUCGCUGGCGCCGGCUGGGCAACAUUCCGAGGGGACCGUCCCCUCGGUAAUGGCGAAUGGGACCCA [G6C U20G]	0.0978
GGCCGUCAUGGUCCCAGCCUCCUCGCUGGCGUCGGCUGGGCAACAUUCCGAGGGGACCGUCCCCUCGGUAAUGGCGAAUGGGACCCA [G6U C32U]	0.787
GGCCGUCAUGGUCCCAGCCUCCUCGCUGGCGACGGCUGGGCAACAUUCCGAGGGGACCGUCCCCUCGGUAAUGGCGAAUGGGACCCA [G6U C32A]	1.08
GGCCGUCAUGGUCCCAGCCUCCUCGCUGGCGCCGGCUGGGCAGCAUUCCGAGGGGACCGUCCCCUCGGUAAUGGCGAAUGGGACCCA [G6U A43G]	0.0665
GGCCGUCAUGGUCCCAGCCUCCUCGCUGGCGCCGGCUGGGCAUCAUUCCGAGGGGACCGUCCCCUCGGUAAUGGCGAAUGGGACCCA [G6U A43U]	0.212
GGCCGUCAUGGUCCCAGCCUCCUCGCUGGCGCCGGCUGGGCACCAUUCCGAGGGGACCGUCCCCUCGGUAAUGGCGAAUGGGACCCA [G6U A43C]	0.0489
GGCCGCCAUGGUCCCAGCCUCCUCGCUGGCGCCGGCUGGGCAACAUUCCGAGGGGACCGACCCCUCGGUAAUGGCGAAUGGGACCCA [G6C U60A]	0.231

Variant	self-cleavage
GGCCGCCAUGGUCCCAGCCUCCUCGCUGGCGCCGGCUGGGCAACAUUCCGAGGGGACCGUCCCCUCGGUAAUGGCGAAUGGUACCCA [G6C G82U]	0.122
GGCCGCCAUGGUCCCAGCCUCCUCGCUGGCGCCGGCUGGGCAACAUUCCGAGGGGACCGUCCCCUCGGUAAGGGCGAAUGGGACCCA [G6C U72G]	0.229
GGCCGCCAUGGUCCCAGCCUCCUCGCUGGCGCCGGCUGGGCAACAUUCCGAGGGGACCGUCCCCUCGGUAAUGGCGAACGGGACCCA [G6C U79C]	0.0405
GGCCGCCAUGGUCCCAGCCUCCACGCUGGCGCCGGCUGGGCAACAUUCCGAGGGGACCGUCCCCUCGGUAAUGGCGAAUGGGACCCA [G6C U23A]	0.0615
GGCCGCCAUGGUCCCAGCCUCCCCGCUGGCGCCGGCUGGGCAACAUUCCGAGGGGACCGUCCCCUCGGUAAUGGCGAAUGGGACCCA [G6C U23C]	0.0639
GGCCGCCAUGGUCCCAGCCUCCGCGCUGGCGCCGGCUGGGCAACAUUCCGAGGGGACCGUCCCCUCGGUAAUGGCGAAUGGGACCCA [G6C U23G]	0
GGCCGCCAUGGUCCCAGCCUCCUCGCUGGCGCCGGCUGGGCAACAGUCCGAGGGGACCGUCCCCUCGGUAAUGGCGAAUGGGACCCA [G6C U46G]	0
GGCCGCCAUGGUCCCAGCCUCCUCGCUGGCGCCGGCUGGGCAACAAUCCGAGGGGACCGUCCCCUCGGUAAUGGCGAAUGGGACCCA [G6C U46A]	0
GGCCGCCAUGGUCCCAGCCUCCUCGCUGGCGCCGGCUGGGCAACAUUCCGAGGGGACCGUCCCCGCGGUAAUGGCGAAUGGGACCCA [G6C U65G]	0.115
GGCCGUCAUGGUCCCUGCCUCCUCGCUGGCGCCGGCUGGGCAACAUUCCGAGGGGACCGUCCCCUCGGUAAUGGCGAAUGGGACCCA [G6U A16U]	0.305
GGCCGUCAUGGUCCCAGCCUCCUCGCUGGCGCCGGCUGGGCAAGAUUCCGAGGGGACCGUCCCCUCGGUAAUGGCGAAUGGGACCCA [G6U C44G]	0.268
GGCCGUCAUGGUCCCAGCCUCCUCGCUGGCGCCGGCUGGGCAAAAUUCCGAGGGGACCGUCCCCUCGGUAAUGGCGAAUGGGACCCA [G6U C44A]	0.213
GGCCGCCAUGGUCCCAGCCUCCUCGCUGGCGCCGGCUGGGCAACAUCCCGAGGGGACCGUCCCCUCGGUAAUGGCGAAUGGGACCCA [G6C U47C]	0.453
GGCCGCCAUGGUCCCAGCCUCCUCGCUGGCGCCGGCUGGGCAACAUUCCGAGGGGACCGUCCCCUCGGCAAUGGCGAAUGGGACCCA [G6C U69C]	0.172
GGCCGUCAUGGUCCCAGCCUCCUCGCUGGCGCCGGCUGGGCAACAUUCCGAGGGGACCGUCCCCUCGGUUAUGGCGAAUGGGACCCA [G6U A70U]	0.46
GGCCGUCAUGGUCCCAGCCUCCUCGCUGGCGCCGGCUGGGCAACAUUCCGAGGGGACCGUCCCCUCGGUCAUGGCGAAUGGGACCCA [G6U A70C]	0.135
